Test results as given in patent US11428689B2, “Methods and uses for remotely triggered protease activity measurements” (Massachusetts Institute of Technology, priority 2016, dated 2022).
Where no end group is shown, it is not given here. [ ]: non-standard residue; d: D form. FAM = fluorescein

How the values were obtained:
[1] = target: T1, MMP13 (Homo sapiens, UniProt P45452); experiment: In vitro recombinant protease assay (fluorescence dequenching of NP-bound substrate); type: biochemical; details: for cleavage of substrate by MMP13: unmodified substrate on particle
T1 construct: purchased Enzo Life Sciences
Procedure: (§1) C1-NP complexes sensitive to MMP cleavage were mixed with 1% (wt/vol) BSA (Sigma) and incubated with recombinant proteases (MMPs and ADAMs: Enzo Life Sciences; Clotting proteases: Haematologic Technologies) in a final volume of 100 μL in enzyme-specific buffers (MMP buffer: 50 mM Tris, 150 mM NaCl, 5 mM CaCl2, 1 μM ZnCl2, pH 7.5; Clotting proteases: PBS) in a 384-well plate for time-lapse fluorimetry to measure dequenching from homoquenched peptides at 37° C. (SpectroMax Gemini EM Microplate Reader). For the metalloproteinase, enzymes were diluted 1:10 in enzyme specific buffer, and for clotting proteases, enzymes were diluted 1:100. Cleavage heatmap was generated using GENE-E (Broad Institute). Michaelis-Menten constants were determined by assessing initial cleavage velocities at different substrate concentrations. The MMP inhibitor Marimatstat (Tocris) was added to the mixture at 100 μM final concentration. To identify the cleavage position by MMP9, C1-NPs were incubated with MMP9 overnight, and the N-terminal cleavage fragment was isolated and analyzed by MALDI. The sequence corresponding to the dominant peak was identified, and the final amino acid was in that sequence represents the P1 position (toward the N-terminal end from scissile bond). For protease resistance assays, various DMNPE: peptide ratios were reacted overnight and purified prior to being added to proteases.
(§2) Light activation of peptides for biochemical studies was performed using a CL-1000 UV Cross-linker (UVP, 8 mW/cm^2). Power density was measured by an OAI 306 UV power meter at 365 nm. Typical exposure time for these studies was 10-30 min. For activation in cell and animal studies, Lumen Dynamics UV system with 365 nm fiber light guide was used (OmniCure 1000, 200 mW/cm^2). For in vivo activation at the tumor site, mice were anesthetized, and the light was guided through an optical cable and placed approximately 3 cm from the flank tumor. Each flank tumor was exposed for 30 s.

[2] = target: T2, MMP7 (Homo sapiens, UniProt P09237); experiment: as above; type: biochemical; details: unmodified substrate on particle
T2 construct: purchased Enzo Life Sciences
T2 sequence (P09237 95-267): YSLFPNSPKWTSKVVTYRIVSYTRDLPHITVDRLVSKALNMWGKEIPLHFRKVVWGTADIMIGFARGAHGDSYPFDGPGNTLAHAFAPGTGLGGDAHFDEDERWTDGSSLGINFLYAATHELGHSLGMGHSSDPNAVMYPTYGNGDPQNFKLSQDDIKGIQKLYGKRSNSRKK
Procedure: as §1

[3] = target: T3, MMP1 (Homo sapiens, UniProt P03956); experiment: as above; type: biochemical; details: unmodified substrate on particle
T3 construct: purchased Enzo Life Sciences
T3 sequence (P03956 100-469): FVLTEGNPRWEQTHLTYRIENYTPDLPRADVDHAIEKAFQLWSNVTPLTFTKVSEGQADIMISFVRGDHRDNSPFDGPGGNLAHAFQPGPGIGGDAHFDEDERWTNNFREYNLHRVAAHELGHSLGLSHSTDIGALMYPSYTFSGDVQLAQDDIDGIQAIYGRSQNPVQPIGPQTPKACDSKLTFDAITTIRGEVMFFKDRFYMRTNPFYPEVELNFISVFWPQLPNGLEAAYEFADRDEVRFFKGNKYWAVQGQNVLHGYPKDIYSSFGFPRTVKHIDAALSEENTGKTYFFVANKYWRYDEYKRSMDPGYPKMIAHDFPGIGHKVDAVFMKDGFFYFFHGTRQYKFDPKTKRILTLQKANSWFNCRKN
Procedure: as §1

[4] = target: T4, MMP14 (Homo sapiens, UniProt P50281); experiment: as above; type: biochemical; details: unmodified substrate on particle
T4 construct: purchased Enzo Life Sciences
Procedure: as §1

[5] = target: MMP9 (Homo sapiens, UniProt P14780); experiment: as above; type: biochemical; design: purchased Enzo Life Sciences
Sequence of MMP9 (P14780 94-707, species assumed): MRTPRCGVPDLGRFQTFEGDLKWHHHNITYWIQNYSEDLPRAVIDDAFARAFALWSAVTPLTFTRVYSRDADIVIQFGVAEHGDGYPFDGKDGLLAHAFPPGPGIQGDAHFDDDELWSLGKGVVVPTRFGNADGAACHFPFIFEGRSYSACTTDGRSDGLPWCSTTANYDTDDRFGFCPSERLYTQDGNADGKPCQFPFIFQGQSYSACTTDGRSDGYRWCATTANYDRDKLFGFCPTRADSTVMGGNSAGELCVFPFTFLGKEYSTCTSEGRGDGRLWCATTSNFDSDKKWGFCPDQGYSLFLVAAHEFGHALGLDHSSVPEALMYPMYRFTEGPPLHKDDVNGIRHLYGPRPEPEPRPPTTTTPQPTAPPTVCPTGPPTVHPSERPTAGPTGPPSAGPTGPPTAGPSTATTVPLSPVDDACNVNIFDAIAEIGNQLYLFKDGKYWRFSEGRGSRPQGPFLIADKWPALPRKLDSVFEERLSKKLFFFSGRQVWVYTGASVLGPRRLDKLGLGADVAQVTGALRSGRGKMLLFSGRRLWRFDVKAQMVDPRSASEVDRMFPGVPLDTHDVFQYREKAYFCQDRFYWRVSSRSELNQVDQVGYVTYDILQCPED
Procedure: as §1, §2

[6] = test system: CCD-18Co cell line; experiment: Secreted protease activity assay, conditioned media; type: cell-based; details: conditioned media from CCD-18Co cells
Procedure: (§3) LS174T and CCD-18Co (ATCC CRL-1459) cells were cultured in Eagle's Minimal Essential Medium (ATCC) supplemented with 10% FBS (Gibco) and 1% penicillin-streptomycin (CellGro). Cells were passaged when confluence reached 80%. To isolate secreted proteases, after cells were plated, cells were washed and replaced in serum-free media. Conditioned media was collected 24 h later and exposed to C1-NPs to measure fluorescence dequenching.

[7] = NP stability in physiological solution (lack of fluorescent dequenching); type: in vitro ADME; details: physiological solution (human control serum, FIG. 7C), 37° C., 24 h
Procedure: Next, whether STREAMs could provide both spatial and temporal control of MMP activity measurements was tested. First, whether the veiled NPs would block protease cleavage until activation by light was evaluated. Due to homoquenching of the fluorescent substrates once assembled on the NPs, protease activity can be monitored by measuring increases in sample fluorescence that occurs from peptide proteolysis (FIG. 7B). NPs were stable in physiological solution at 37° C. over 24 h, as confirmed by a lack of fluorescent dequenching (FIG. 7C).

[8] = test system: LS174T cells; experiment: Secreted protease activity assay, conditioned media; type: cell-based, human; details: conditioned media from LS174T cells
Procedure: as §3

[9] = test system: LS174T cells; experiment: 3D collagen cancer tissue model, peptide fluorescence in supernatant; type: cell-based, human
Procedure: Next, the activation of the nanosensors in a 3D ECM environment was probed. Forty LS174T cells were embedded in collagen I together with veiled or unmodified nanosensors (FIG. 4A). The constructs were monitored for protease activity by collecting the supernatant and measuring liberated peptide fragments under different conditions: L-amino acid peptide substrates were compared to D-amino acid counterparts to measure nonspecific background, and the role of DMPNE veiling was measured.
In order to correlate regions of light-activation with protease activity measurements, light-activated rhodamine dye was included to visualize regions exposed to light (FIG. 12A). To explore the ability to monitor protease activity with spatial and temporal control, only the left half of the gels was illuminated.
LS174T cells were encapsulated in 2.5 mg/mL collagen hydrogels (rat tail collagen type I, Corning). Imaging was done on Nikon Eclipse Ti Inverted Microscopes and Zeiss Stereoscope Discovery v20. When protease activity was measured, surrounding media was serum-free.

cleavage of substrate by MMP13 [1]: most efficient
cleavage of substrate by MMP13 ([1]; listed as C1-NP): significantly cleaved
cleavage of substrate by MMP7 [2]: significantly cleaved
cleavage of substrate by MMP1 [3]: significantly cleaved
cleavage of substrate by MMP14 [4]: able to cleave the substrate
cleavage of substrate by MMP9 ([5]; unmodified substrate on particle): significantly cleaved
Substance: C1-NPs: Iron oxide NPs functionalized with fluorescein-conjugated peptide substrate C1 at surface valency >20; in vitro protease sensor ({FAM}-[dS][dK]PLGLEEAGC(iron oxide nanoparticle); not fully specified; printed as FAM-sk-PLGLEEA-GC; also: C-terminal Cys coupled to iron oxide nanoparticle)
catalytic efficiency ([1]; MMP13, Michaelis-Menten fit): > 10^4 M^−1 s^−1
catalytic efficiency ([5]; MMP9, Michaelis-Menten fit): > 10^3 M^−1 s^−1
cleavage by cell-secreted proteases [6]: significantly lower compared to LS174T cells
stability (lack of fluorescent dequenching) [7]: stable
cleavage by cell-secreted proteases [8]: peptide cleavage and a dose-dependent increase in fluorescence
liberated peptide fluorescence in supernatant ([9]; first day, no light): significantly more fluorescent peptides than those with D-amino acid NPs
peptide fluorescence in supernatant after light exposure ([9]; left half of gels illuminated, 24 h, 30 s at 200 mW/cm^2): did not exhibit significant changes in peptide fluorescence
